Substitutions are numbered along the chain they refer to.
How the values were obtained:
[1] = target: AcrIF24 T129W; test: SEC-MALS; details: parent: 55.76
[2] = target: P. aeruginosa type I-F Cascade complex (Cas5f1, Cas6f, six copies of Cas7f1, Cas8f1 and a 60 nt crRNA) (UniProt Q02MM2); test: SEC followed by SDS-PAGE, band intensity quantified; details: parent: est. 100; read off a plot
[3] = target: AcrIF24 R221W; test: SEC-MALS; details: parent: 55.76
[4] = target: AcrIF24 Y128K/Y217W double mutant; test: SEC-MALS; details: parent: 55.76
[5] = target: the molecule itself; test: SEC-MALS; Superdex 200 Increase 10/300 GL, SEC buffer (20 mM Tris-HCl pH 8.0, 150 mM NaCl), 0.4 ml/min, 20°C; DAWN-TREOS detector
[6] = target: T1, AcrIF24 wild type (Pseudomonas aeruginosa prophage, UniProt A0AA82WNY5 1-228); test: EMSA; concentration-dependent; EMSA-P: 10 mM HEPES pH 7.5, 1 mM MgCl2, 20 mM KCl, 1 mM TCEP, 5% glycerol, 30 min on ice; 10% native 0.5x TBE gel, SYBR Gold; Cascade EMSA buffer not in material; details: protein: recombinant; chain copies: 2; label: none (SYBR Gold stain); blunt
T1 sequence: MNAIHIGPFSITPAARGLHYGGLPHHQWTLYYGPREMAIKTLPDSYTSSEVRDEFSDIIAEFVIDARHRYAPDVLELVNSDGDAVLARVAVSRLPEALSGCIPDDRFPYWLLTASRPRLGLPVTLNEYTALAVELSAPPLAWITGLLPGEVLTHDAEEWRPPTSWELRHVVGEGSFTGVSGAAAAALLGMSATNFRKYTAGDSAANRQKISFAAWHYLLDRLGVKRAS

[7] = target: T1, AcrIF24 wild type; test: EMSA; EMSA-P: 10 mM HEPES pH 7.5, 1 mM MgCl2, 20 mM KCl, 1 mM TCEP, 5% glycerol, 30 min on ice; 10% native 0.5x TBE gel, SYBR Gold; Cascade EMSA buffer not in material; details: protein: recombinant, chain copies: 2, label: none (SYBR Gold stain)

Q: With “AcrIF24 (wildtype, full length, residues 1-228) T129W” as the molecule, how does the other: MW (kDa) by SEC-MALS [1] read?
A: The other: MW (kDa) by SEC-MALS was 53.9 kDa.

Q: “AcrIF24 (wildtype, full length, residues 1-228) G22Y” was tested. Which percent of parent [2] did it give?
A: Its percent of parent is 98%.

Q: For “AcrIF24 (wildtype, full length, residues 1-228) R221W”, which other: MW (kDa) by SEC-MALS [3] is on record?
A: The other: MW (kDa) by SEC-MALS was 52.4 kDa.

Q: With “AcrIF24 (wildtype, full length, residues 1-228) D105K” as the molecule, how does the percent of parent [2] read?
A: Its percent of parent is 98%.

Q: Which other: MW (kDa) by SEC-MALS [4] does the source give for “AcrIF24 (wildtype, full length, residues 1-228) Y128K; Y217W” here?
A: Its other: MW (kDa) by SEC-MALS is 39.6 kDa.

Q: How did the percent of parent [2] turn out when “AcrIF24 (wildtype, full length, residues 1-228) G189K” was run?
A: Its percent of parent is 88%.

Q: For “AcrIF24 (wildtype, full length, residues 1-228) W110K”, which percent of parent [2] is on record?
A: Its percent of parent is 11%.

B1: AcrIF24 (wildtype, full length, residues 1-228) (natural protein)
chain: T1 sequence
Q: With B1 as the molecule, how does the “stoichiometry N” value [5] read?
A: Its value is 2.

B2: IR-L (dsDNA)
DNA 1: CAGAATATCATTGCATAGCTCGATTCGAGCTAATATAGTAATACCAACAGCGCGGCACACCGCCAGCACTGAACCT
DNA 2: AGGTTCAGTGCTGGCGGTGTGCCGCGCTGTTGGTATTACTATATTAGCTCGAATCGAGCTATGCAATGATATTCTG
Q: Does B2 bind [6]?
A: Result: binds

B3: IR-L half-site mutant (dsDNA)
DNA 1: B2 DNA 1 with T16G, A17C, G18A, C19T, T20G, C21A, G22T, A23C
DNA 2: B2 DNA 2 with T54G, C55A, G56T, A57C, G58A, C59T, T60G, A61C
Q: Does B3 bind [7]?
A: Result: no binding

B4: IR-S (dsDNA)
DNA 1: TAGCTCGATTCGAGCTA
DNA 2: TAGCTCGAATCGAGCTA
Q: Does B4 bind ([7]; blunt)?
A: Result: binds

B5: IR-S half-site mutant (dsDNA)
DNA 1: GCATGATCTTCGAGCTA
DNA 2: TAGCTCGAAGATCATGC
Q: Does B5 bind [7]?
A: Result: no binding

Source: article PMC9638941, “Molecular basis of dual anti-CRISPR and auto-regulatory functions of AcrIF24” (Nucleic Acids Research, 2022)
